Experimental findings from PMC6632115 are described below.

In this test the target is T1, colicin E3 (Escherichia coli) (UniProt P00646).
T1 sequence: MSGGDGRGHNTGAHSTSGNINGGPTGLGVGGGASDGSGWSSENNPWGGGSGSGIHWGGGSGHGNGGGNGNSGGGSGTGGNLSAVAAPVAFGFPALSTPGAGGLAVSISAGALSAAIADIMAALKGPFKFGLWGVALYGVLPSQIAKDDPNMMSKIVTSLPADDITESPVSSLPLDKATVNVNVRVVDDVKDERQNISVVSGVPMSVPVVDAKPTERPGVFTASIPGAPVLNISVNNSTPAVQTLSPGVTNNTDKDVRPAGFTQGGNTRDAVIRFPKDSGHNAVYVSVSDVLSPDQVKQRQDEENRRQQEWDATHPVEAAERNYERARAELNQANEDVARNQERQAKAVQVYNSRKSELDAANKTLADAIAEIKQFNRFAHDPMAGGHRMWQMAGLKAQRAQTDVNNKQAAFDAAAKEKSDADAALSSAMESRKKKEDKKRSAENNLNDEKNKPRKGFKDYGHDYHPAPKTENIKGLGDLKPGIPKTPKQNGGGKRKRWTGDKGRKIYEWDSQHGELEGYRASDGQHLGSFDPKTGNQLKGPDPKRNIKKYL

B1: E3 immunity protein, co-expressed with colicin E3 in CFPS (natural protein)
chain: MGLKLDLTWFDKSTEDFKGEEYSKDFGDDGSVMESLGVPFKDNVNNGCFDVIAEWVPLLQPYFNHQIDISDNEYFVSFDYRDGDW
Regarding B1, the effective multiplicity m = -ln(S/S0) of cell killing of K361 indicator cells by 250 ng/mL colicin E3 co-expressed with the immunity protein turned out to be 13.5.
